Experimental data reported in patent US20250154277A1 (CONCEPT TO MEDICINE BIOTECH, published 2025).
Positions count from the first letter of the chain named. Read-outs that look alike come from different tables or passages of the source. Values belong to the binder of their own block, whether it stands above or below them.

Assays:
human 5T4-His protein [1] = molecular target: T1, human 5T4-His protein (human, UniProt Q13641 32-355); assay: ELISA, coated 5T4-His
T1 construct: also called recombinant 5T4 protein (human 5T4-his tag); human 5T4 protein; not shown: His tag
T1 sequence (looked up): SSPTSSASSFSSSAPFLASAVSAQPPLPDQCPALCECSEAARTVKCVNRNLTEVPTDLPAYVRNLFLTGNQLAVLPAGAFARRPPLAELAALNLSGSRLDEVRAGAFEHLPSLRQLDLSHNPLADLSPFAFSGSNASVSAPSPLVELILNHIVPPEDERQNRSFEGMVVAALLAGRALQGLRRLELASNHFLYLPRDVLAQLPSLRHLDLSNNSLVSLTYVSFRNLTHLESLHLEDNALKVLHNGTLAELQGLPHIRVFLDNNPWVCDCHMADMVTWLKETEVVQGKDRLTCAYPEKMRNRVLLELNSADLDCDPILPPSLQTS
Experimental: To evaluate the binding activity of 393E9 humanized antibodies to human 5T4, the 393E9 chimeric antibody (393E9-C) along with 393E9 humanized mAbs were subjected to ELISA test.
Briefly, microtiter plates were coated with human 5T4-His protein at 1 μg/ml in PBS, 100 μl/well at 4° C. overnight, then blocked with 150 μl/well of 1% BSA. 4-fold dilutions of antibodies starting from 20 nM were added to each well and incubated for 1 hour at 37° C. The plates were washed with PBS/Tween and then incubated with Goat Anti-Human IgG-HRP for 30 mins at 37° C. After washing, the plates were developed with TMB substrate and analyzed by spectrophotometer at OD 450 nm. As shown in FIG. 12 and Table 9, most of the humanized antibodies bound to human 5T4 with high activity.

human 5T4-His protein [2] = molecular target: T1, human 5T4-His protein; assay: ELISA, coated 5T4-His; remark: listed apart in the source
Experimental: To evaluate the binding activity of 14G12 humanized antibodies to human 5T4, the 14G12 chimeric antibody along with 14G12 humanized mAbs were subjected to ELISA test.
Briefly, microtiter plates were coated with human 5T4-His protein at 1 μg/ml in PBS, 100 μl/well at 4° C. overnight, then blocked with […]. Serial dilutions of antibodies were added to each well and incubated for 1 hour at 37° C. The plates were washed with PBS/Tween and then incubated with Goat Anti-Human IgG-HRP for 30 mins at 37° C. After washing, the plates were developed with TMB substrate and analyzed by spectrophotometer at OD 450 nm. As shown in FIG. 10 and Table 6, most of the humanized antibodies bound to human 5T4 at high activity.

human 5T4-His protein [3] = molecular target: T1, human 5T4-His protein; assay: SPR Biacore, Protein A capture
Experimental: The binding of the 14G12 humanized antibodies to recombinant 5T4 protein (human 5T4-his tag) was tested with Biacore using a capture method. The mAbs were captured using Protein A chip. Serial dilution of human 5T4-his tag protein was injected over captured antibody for 120 s-180 s at a flow rate of 30 μl/min. The antigen was allowed to dissociate for 360 s-1000 s. All the experiments were carried out on a Biacore T200. Data analysis was carried out using the Biacore T200 evaluation software.

B1: 393E9_hVH1_hVL1 (antibody, V domains shown)
VH: EVQLVESGGGLVQPGGSLRLSCAASGFTFTDYYMSWVRQAPGKGLEWVGFIRNKGNGYTTENSASVKGRFTISRDNSKSTLYLQMNSLRAEDTAVYYCARYRGNPHYAMDYWGQGTLVTVSS
VL: DIVLTQSPDSLAVSLGERATINCRASESVEFYGTSFLQWYQQKPGQPPKLLIYGASNVESGVPDRFSGSGSGTDFTLTISSLQAEDIAVYFCQQSRKVPSTFGGGTKVEIK
notes: humanized
EC50 (human 5T4-His protein [1]): 0.18 nM

B2: 393E9_hVH1_hVL2 (antibody, V domains shown)
VH: B1 VH
VL: EIVLTQSPATLSVSPGERATLSCRASESVEFYGTSFLQWYQQKPGQAPRLLIYGASNVESGIPARFSGSGSGTEFTLTISSLQSEDIAVYFCQQSRKVPSTFGGGTKVEIK
notes: humanized
EC50 (human 5T4-His protein [1]): 0.16 nM

B3: 393E9_hVH1_hVL3 (antibody, V domains shown)
VH: B1 VH
VL: DIQLTQSPSSLSASVGDRVTITCRASESVEFYGTSFLQWYQQKPGKAPKLLIYGASNVESGVPSRFSGSGSGTDFTLTISSLQPEDIATYFCQQSRKVPSTFGGGTKVEIK
notes: humanized
EC50 (human 5T4-His protein [1]): 0.085 nM

B4: 393E9_hVH6_hVL4 (antibody, V domains shown)
VH: B1 VH with S77A, T80S
VL: DIVLTQSPLSLPVTPGEPASISCRASESVEFYGTSFLQWYLQKPGQSPQLLIYGASNVESGVPDRFSGSGSGTDFTLKISRVEAEDIGVYFCQQSRKVPSTFGGGTKVEIK
notes: humanized
EC50 (human 5T4-His protein [1]): 0.14 nM

B6: 393E9_hVH4_hVL4 (antibody, V domains shown)
VH: B1 VH with T80S, R89K, A90T
VL: B4 VL
notes: humanized
EC50 (human 5T4-His protein [1]): 0.16 nM

B7: 393E9_hVH6_hVL1 (antibody, V domains shown)
VH: B1 VH with S77A, T80S
VL: B1 VL
notes: humanized
EC50 (human 5T4-His protein [1]): 0.11 nM

B8: 393E9_hVH3_hVL2 (antibody, V domains shown)
VH: B1 VH with E1Q, L11V
VL: B2 VL
notes: humanized
EC50 (human 5T4-His protein [1]): 0.2 nM

B12: Hu14G12-11 (antibody, V domains shown)
VH: EVQLVQSGAEVKKPGATVKISCKVSGYAFSSSWMNWVKQAPGKGLEWIGRIYREDGHTNYNGKFKGRATITADTSTTTAYMELSSLRSEDTAVYFCANGGAMDYWGQGTLVTVSS
VL: DIQMTQSPSSLSASVGDRVTISCRASQDISNYLNWYQQKPGKAVKLLIYYTSRLHSGVPSRFSGSGSGTDFTFTISSLQPEDIATYFCQQDNTLPWTFGGGTKLEIK
notes: humanized
EC50 (human 5T4-His protein [2]): 0.015 mg/L
Kd (human 5T4-His protein [3]): 2.17 nM
koff (human 5T4-His protein [3]): 0.000523 s⁻¹
kon (human 5T4-His protein [3]): 241000 M⁻¹ s⁻¹

B14: Hu14G12-5 (antibody, V domains shown)
VH: B12 VH with K38Q, A68V, T77D
VL: B12 VL with S22T, V44P, F87Y
notes: humanized
EC50 (human 5T4-His protein [2]): 0.014 mg/L
Kd (human 5T4-His protein [3]): 5.88 nM
koff (human 5T4-His protein [3]): 0.00146 s⁻¹
kon (human 5T4-His protein [3]): 248000 M⁻¹ s⁻¹

B15: Hu14G12-1 (antibody, V domains shown)
VH: B12 VH with K38Q, I48M, A68V, T77D, F95Y, N98T
VL: B12 VL with S22T, V44P, F87Y
notes: humanized
EC50 (human 5T4-His protein [2]): 0.021 mg/L
Kd (human 5T4-His protein [3]): 42.7 nM
koff (human 5T4-His protein [3]): 0.0121 s⁻¹
kon (human 5T4-His protein [3]): 283000 M⁻¹ s⁻¹

B16: Hu14G12-16 (antibody, V domains shown)
VH: B12 VH with V24A, T91S
VL: B12 VL with A43T, F71Y
notes: humanized
EC50 (human 5T4-His protein [2]): 0.017 mg/L
Kd (human 5T4-His protein [3]): 1.85 nM
koff (human 5T4-His protein [3]): 0.000499 s⁻¹
kon (human 5T4-His protein [3]): 269000 M⁻¹ s⁻¹

B17: Hu14G12-7 (antibody, V domains shown)
VH: B12 VH with K38Q, A68V, T77D
VL: B12 VL
notes: humanized
EC50 (human 5T4-His protein [2]): 0.015 mg/L
Kd (human 5T4-His protein [3]): 2.52 nM
koff (human 5T4-His protein [3]): 0.000846 s⁻¹
kon (human 5T4-His protein [3]): 336000 M⁻¹ s⁻¹

B23: Hu14G12-8 (antibody, V domains shown)
VH: B12 VH with K38Q, A68V, T77D
VL: B12 VL with A43T, F71Y
notes: humanized
EC50 (human 5T4-His protein [2]): 0.015 mg/L
Kd (human 5T4-His protein [3]): 1.36 nM
koff (human 5T4-His protein [3]): 0.000464 s⁻¹
kon (human 5T4-His protein [3]): 340000 M⁻¹ s⁻¹

B24: Hu14G12-9 (antibody, V domains shown)
VH: B12 VH
VL: B12 VL with S22T, V44P, F87Y
notes: humanized
EC50 (human 5T4-His protein [2]): 0.012 mg/L
Kd (human 5T4-His protein [3]): 5.31 nM
koff (human 5T4-His protein [3]): 0.00107 s⁻¹
kon (human 5T4-His protein [3]): 202000 M⁻¹ s⁻¹

B25: Hu14G12-47 (antibody, V domains shown)
VH: QVQLVQSGAEVKKPGASVKVSCKASGYAFSSSWMNWVRQAPGQGLEWMGRIYREDGHTNYNGKFKGRVTMTADKSTTTAYMELRSLRSDDTAVYYCANGGAMDYWGQGTLVTVSS
VL: B12 VL with S10T, S22T, V44P, D70E, F71Y, F73L, E81D, L104V
notes: humanized
EC50 (human 5T4-His protein [2]): 0.014 mg/L
Kd (human 5T4-His protein [3]): 2.1 nM
koff (human 5T4-His protein [3]): 0.000921 s⁻¹
kon (human 5T4-His protein [3]): 438000 M⁻¹ s⁻¹

Next, values leading:

EC50 (human 5T4-His protein [1]): 0.16 nM
B5: 393E9_hVH5_hVL1 (antibody, V domains shown)
VH: B1 VH with G16R, A23T, T80I, R89K, A90T
VL: B1 VL
notes: humanized

EC50 (human 5T4-His protein [1]): 0.13 nM
B9: 393E9_hVH4_hVL1 (antibody, V domains shown)
VH: B1 VH with T80S, R89K, A90T
VL: B1 VL
notes: humanized

EC50 (human 5T4-His protein [1]): 0.27 nM
B10: 393E9_hVH5_hVL2 (antibody, V domains shown)
VH: B1 VH with G16R, A23T, T80I, R89K, A90T
VL: B2 VL
notes: humanized

EC50 (human 5T4-His protein [2]): 0.0075 mg/L
Kd (human 5T4-His protein [3]): 1.41 nM
koff (human 5T4-His protein [3]): 0.00197 s⁻¹
kon (human 5T4-His protein [3]): 1.4e+06 M⁻¹ s⁻¹
B11: Hu14G12-44 (antibody, V domains shown)
VH: B25 VH
VL: B12 VL with S22T, V44P, F71Y, F73L, L104V
notes: humanized

EC50 (human 5T4-His protein [2]): 0.018 mg/L
Kd (human 5T4-His protein [3]): 6.12 nM
koff (human 5T4-His protein [3]): 0.00121 s⁻¹
kon (human 5T4-His protein [3]): 198000 M⁻¹ s⁻¹
B13: Hu14G12-13 (antibody, V domains shown)
VH: B12 VH with V24A, T91S
VL: B12 VL with S22T, V44P, F87Y
notes: humanized

EC50 (human 5T4-His protein [2]): 0.31 mg/L
Kd (human 5T4-His protein [3]): 4.55 nM
koff (human 5T4-His protein [3]): 0.00178 s⁻¹
kon (human 5T4-His protein [3]): 392000 M⁻¹ s⁻¹
B18: Hu14G12-18 (antibody, V domains shown)
VH: QVQLVQSGAEVKKPGSSVKVSCKASGGTFSSSWMNWVKQAPGQGLEWIGRIYREDGHTNYNGKFKGKATLTADKSTSTAYMELSSLRSEDTAVYFCANGGAMDYWGQGTTVTVSS
VL: B12 VL with S22T, A43V, V44P, F71Y, F73L, I83V
notes: humanized

EC50 (human 5T4-His protein [2]): 0.019 mg/L
Kd (human 5T4-His protein [3]): 12.5 nM
koff (human 5T4-His protein [3]): 0.00267 s⁻¹
kon (human 5T4-His protein [3]): 214000 M⁻¹ s⁻¹
B19: Hu14G12-4 (antibody, V domains shown)
VH: B12 VH with K38Q, I48M, A68V, T77D, F95Y, N98T
VL: B12 VL with A43T, F71Y
notes: humanized

EC50 (human 5T4-His protein [2]): 0.014 mg/L
Kd (human 5T4-His protein [3]): 3.19 nM
koff (human 5T4-His protein [3]): 0.000837 s⁻¹
kon (human 5T4-His protein [3]): 262000 M⁻¹ s⁻¹
B20: Hu14G12-15 (antibody, V domains shown)
VH: B12 VH with V24A, T91S
VL: B12 VL
notes: humanized

EC50 (human 5T4-His protein [2]): 0.026 mg/L
Kd (human 5T4-His protein [3]): 27.5 nM
koff (human 5T4-His protein [3]): 0.0055 s⁻¹
kon (human 5T4-His protein [3]): 200000 M⁻¹ s⁻¹
B21: Hu14G12-3 (antibody, V domains shown)
VH: B12 VH with K38Q, I48M, A68V, T77D, F95Y, N98T
VL: B12 VL
notes: humanized

EC50 (human 5T4-His protein [2]): 0.019 mg/L
Kd (human 5T4-His protein [3]): 2.39 nM
koff (human 5T4-His protein [3]): 0.000655 s⁻¹
kon (human 5T4-His protein [3]): 274000 M⁻¹ s⁻¹
B22: Hu14G12-12 (antibody, V domains shown)
VH: B12 VH
VL: B12 VL with A43T, F71Y
notes: humanized
